Sequences and labels used below:
B1: glmS ribozyme (parent)
chain: AUAAAAGCGCCAGAACUACAGAAAUGUAGUUGACGAGGAGGAGGUUUAUCGAAUUUUCGGCGGAUGCCUCCAAA

What all share (conditions): with glucosamine-6-phosphate
The variants in data set [1] derive from B1. Put plainly: self-cleavage kobs at 640 uM GlcN6P; higher = faster cleavage; RNA array. Put shortly:
(§1)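 The measurements used barcoded ribozyme variants on sequenced MiSeq chips, transcribed in situ by E. coli RNA polymerase and tracked at 37 °C with a hybridised Cy3 probe. Glucosamine-6-phosphate, 40 μM to 10 mM in HEPES/KCl/Mg(OAc)2 buffer, was flowed in while tiles were imaged over ~14 h. Baseline-normalised signals, also normalised to non-cleaving reference variants, gave per-tile medians that were fit to one- or two-exponential decays for kobs. kcat and KM resulted from weighted Michaelis–Menten fits across concentrations.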

Variants of B1 are the subject of data set [2]. Put plainly: self-cleavage kobs at 2500 uM GlcN6P; higher = faster cleavage; RNA array. Put shortly: as §1
The variants in data set [3] derive from B1. Put plainly: self-cleavage kobs at 10000 uM GlcN6P; higher = faster cleavage; RNA array. Put shortly: as §1

± gives the standard error. This sample holds only a part of the variants without activity.

In the case of AUAAAAGCGCCAGACCUACAGAAAUGUAGUUUACGAGGAGGAGGUUUAUCGAAUGUUGGGCGGAUGCCGCCAAA [A15C G32U U55G C58G U69G], in the data set with glucosamine-6-phosphate [1], the “self-cleavage kobs at 640 uM GlcN6P” value came out at 0.000909 ± 0.00036 s⁻¹.

AUAAAAGCGCCAGAACUACAGAAAUGUAGUAGACGAGGAGGAGGUUUAUCGAAUUUUGGGCGGCUGCUUCCAAA [U31A C58G A64C C68U]: the “self-cleavage kobs at 640 uM GlcN6P” value in the data set with glucosamine-6-phosphate [1] came out at 0.00011 ± 3.5e-05 s⁻¹. The “self-cleavage kobs at 2500 uM GlcN6P” value with glucosamine-6-phosphate [2] is 8.36e-05 ± 2.2e-05 s⁻¹.

As to AUAAAAGCGCCAGAACUACAGAAAUGUAGUUAACGCGGAGGAGGUUUAUCGAAUGUUCGGCGGAUGGGUCCAAA [G32A A36C U55G C67G C68G], the “self-cleavage kobs at 640 uM GlcN6P” value with glucosamine-6-phosphate [1] came to 0.000126 ± 3.4e-05 s⁻¹. Also, the “self-cleavage kobs at 2500 uM GlcN6P” value with glucosamine-6-phosphate [2] was 4.75e-05 ± 1.2e-05 s⁻¹.

For AUAAAAGCGCCAGAACUACAGAAAUGUAGUUGACGACGAGGAGGUUUAUCGAAUUUACGGCGGCUGCCUCAAAA [G37C U57A A64C C71A], in the data set with glucosamine-6-phosphate [1], the “self-cleavage kobs at 640 uM GlcN6P” value was less than 1e-05 s⁻¹. Besides, the “self-cleavage kobs at 2500 uM GlcN6P” value in the data set with glucosamine-6-phosphate [2] was less than 1e-05 s⁻¹.

Take AUAAAAGCGCCAGAACUACAGAAAUGUACUUGACGAGGACGAGGUUUAUCGAAAUUUCGGCGGAUGCCUCCAAA [G29C G40C U54A]: the “self-cleavage kobs at 2500 uM GlcN6P” value in the data set with glucosamine-6-phosphate [2] worked out at 6.31e-05 ± 2.5e-05 s⁻¹.

Regarding AUAAAAGCGCCAGAACUACAGAAAUGUAGUUGACGAGUAGGAUGUUUAUCGAAUUUUCGGCGGACGCGUCGAAA [G38U G43U U65C C68G C71G], the “self-cleavage kobs at 640 uM GlcN6P” value with glucosamine-6-phosphate [1] was less than 1e-05 s⁻¹.

For AUAAAAGCGUCCGAACUACAGAAAUGUAGUUGACGAGGAGGAGGUUUAUCGAAUUUUCGGCGGAUACCUCCAAA [C10U A12C G66A], in the data set with glucosamine-6-phosphate [2], the “self-cleavage kobs at 2500 uM GlcN6P” value came to 3.37e-05 ± 1.5e-05 s⁻¹.

For the variant AUAAAAUCGCCAGAACUACAGAAAUGUAGUUGACUAGCAGGAGGUUUAUCGAAUUUUCGGCGGAUGCCUCCAAA [G7U G35U G38C], the “self-cleavage kobs at 640 uM GlcN6P” value with glucosamine-6-phosphate [1] is less than 1e-05 s⁻¹. For the same variant, in the data set with glucosamine-6-phosphate [2], the “self-cleavage kobs at 2500 uM GlcN6P” value was less than 1e-05 s⁻¹. The “self-cleavage kobs at 10000 uM GlcN6P” value in the data set with glucosamine-6-phosphate [3] is less than 1e-05 s⁻¹.

Consider AUAAAAGCGCCUGAACUACAGAAAUGUAGUUGACGAGGAGGAGGUUUAUCGACUUUUCGGCGGAUGUCUCCAAA [A12U A53C C67U], for which, in the data set with glucosamine-6-phosphate [1], the “self-cleavage kobs at 640 uM GlcN6P” value turned out to be 0.00253 ± 0.0006 s⁻¹.

For AUAAAAGCGCCAGAAUUACAGAAAUGUAGUUGACGUGCAGGAGGUUUAUCGAAUUUUCGCCGGAUGCCUCCAAA [C16U A36U G38C G60C], in the data set with glucosamine-6-phosphate [2], the “self-cleavage kobs at 2500 uM GlcN6P” value is less than 1e-05 s⁻¹.

On to AUAAAAGAGCCAGAACUACAGAAAUGUAGUUGACUAGGAGGAGGUUUAUCGUAUUUUCGGCGGAUGCCUCCAAA [C8A G35U A52U], for which the “self-cleavage kobs at 2500 uM GlcN6P” value with glucosamine-6-phosphate [2] is less than 1e-05 s⁻¹.

Turning to AUAAAAGCGCCAGAACUACAGAAAUGUAGUGGACGAGUAGGAGGUUUAUCGAAUUUUCGGCGGAUGCCACUAAA [U31G G38U U69A C71U], in the data set with glucosamine-6-phosphate [1], the “self-cleavage kobs at 640 uM GlcN6P” value amounted to 0.000772 ± 0.0003 s⁻¹.

For AUAAAAGCGCCAGAACUACAGAAAUGUAGUUUACGAGGAGGAGGUUUAUCGAAUUUUCAGCGGUUGUCUCCAAA [G32U G59A A64U C67U], in the data set with glucosamine-6-phosphate [1], the “self-cleavage kobs at 640 uM GlcN6P” value was less than 1e-05 s⁻¹. For the same variant, the “self-cleavage kobs at 2500 uM GlcN6P” value with glucosamine-6-phosphate [2] is less than 1e-05 s⁻¹.

As for AUAAAAGCGCCAGAACUACAGAAAUGUAGUUGACGAGCAGGGGGUUUAGCGGAUUUUCGGCGCAUGCCUCCAAA [G38C A42G U49G A52G G63C], the “self-cleavage kobs at 640 uM GlcN6P” value with glucosamine-6-phosphate [1] was less than 1e-05 s⁻¹. Besides, the “self-cleavage kobs at 2500 uM GlcN6P” value with glucosamine-6-phosphate [2] was less than 1e-05 s⁻¹.

In the case of AUAAAAGCGCCACAACUACAGAAAUGUAGUUUACGAGUAGGAGGUUGUUCGAAUUUUCGGCGGAUGCCUCCAAA [G13C G32U G38U U47G A48U], in the data set with glucosamine-6-phosphate [2], the “self-cleavage kobs at 2500 uM GlcN6P” value is less than 1e-05 s⁻¹.

Turning to AUAAAAGCGCCAGAACUACAGAAAUGUAGUUGACGAGGAGGAGGUUUAUCGAAUUUUCGUCGGAUCCCUUCAAA [G60U G66C C70U], the “self-cleavage kobs at 640 uM GlcN6P” value with glucosamine-6-phosphate [1] is less than 1e-05 s⁻¹.

As for AUAAAAGCGCCAGAACUACAGAAAUGUAGUAGACGAGGAGGAGGUUUAUCGAGUUUUCGGCGGAAGCCUACAAA [U31A A53G U65A C70A], in the data set with glucosamine-6-phosphate [1], the “self-cleavage kobs at 640 uM GlcN6P” value was 6.1e-05 ± 2.4e-05 s⁻¹.

As for AUAAAAGCGCCGGAACUACAGAAAUGUAGUUGACGAGGAGGAGGUUUAUCGAAAUUUCGGCGGAUGCCUCCAAA [A12G U54A], the “self-cleavage kobs at 640 uM GlcN6P” value with glucosamine-6-phosphate [1] was 0.000125 ± 2.3e-05 s⁻¹. Also, the “self-cleavage kobs at 2500 uM GlcN6P” value with glucosamine-6-phosphate [2] was found to be 0.000221 ± 4.5e-05 s⁻¹. Moreover, the “self-cleavage kobs at 10000 uM GlcN6P” value in the data set with glucosamine-6-phosphate [3] came out at 0.000878 ± 0.00013 s⁻¹.

Consider AUAAAAGCGCCAGAACUACAGAAAUGUAGUUGACGAGGAGGAGGUUUAUCGAAUUUUGGGCGGAUGCAGCCAAA [C58G C68A U69G], for which, in the data set with glucosamine-6-phosphate [1], the “self-cleavage kobs at 640 uM GlcN6P” value came to 0.000107 ± 3.5e-05 s⁻¹. The “self-cleavage kobs at 2500 uM GlcN6P” value with glucosamine-6-phosphate [2] came out at 5.37e-05 ± 2.4e-05 s⁻¹.

Regarding AUAAAAGCGCCAGAGCUACAGAAAUGUAGUUGACGAGUAGGAGGUUUAUCGUAUUUUCGGCGGAUGCCUCCAAA [A15G G38U A52U], in the data set with glucosamine-6-phosphate [2], the “self-cleavage kobs at 2500 uM GlcN6P” value is less than 1e-05 s⁻¹.

Turning to AUAAAAGCGCCAGGAAUACAGAAAUGUAGUUGACGAGGAAGAGGUUUAUCGAAUUUUCGGCGGAUGCCUCCAAA [A14G C16A G40A], the “self-cleavage kobs at 640 uM GlcN6P” value with glucosamine-6-phosphate [1] worked out at 0.000169 ± 3e-05 s⁻¹. The “self-cleavage kobs at 2500 uM GlcN6P” value with glucosamine-6-phosphate [2] came out at 0.00023 ± 6.8e-05 s⁻¹.

Consider AUAAAAGCGCCAGAACUACAGAAAUGUAGUGGACGCGGAGGAGGUUUAGCGAAUUUUCGGCGGAUGCCUCCAAA [U31G A36C U49G], for which, in the data set with glucosamine-6-phosphate [1], the “self-cleavage kobs at 640 uM GlcN6P” value was 8.9e-05 ± 1.7e-05 s⁻¹. Moreover, the “self-cleavage kobs at 2500 uM GlcN6P” value with glucosamine-6-phosphate [2] came to 0.000257 ± 4.5e-05 s⁻¹. In addition, the “self-cleavage kobs at 10000 uM GlcN6P” value with glucosamine-6-phosphate [3] amounted to 0.000385 ± 6.8e-05 s⁻¹.

For the variant AUAAAAGCGCCACAACUACAGAAAUGUAGUUGACGAGGAGGUGGUUUAUCGAAUUUACGGCGCAUGCCUCCAAA [G13C A42U U57A G63C], the “self-cleavage kobs at 640 uM GlcN6P” value with glucosamine-6-phosphate [1] is less than 1e-05 s⁻¹. Further, in the data set with glucosamine-6-phosphate [2], the “self-cleavage kobs at 2500 uM GlcN6P” value is less than 1e-05 s⁻¹.

The record behind these values is the supplement of paper PMC7125110.
